From doi:10.1101/2023.04.03.535447 come the findings set out here.

The target of experiment [1] is ACE2 receptor (UniProt Q9BYF1). Description: ELISA; competitive ELISA of ACE2 binding; DCFHP 100% adsorbed to Alhydrogel (no phosphate), time zero against storage at 4 °C for 3-21 days (mean 10 days); read-out is the native antigen concentration against a reference, target 50 mcg/mL.
For experiment [2], the target named is ACE2 receptor (UniProt Q9BYF1). As to the kind of experiment: ELISA; competitive ELISA of ACE2 binding; Alhydrogel-adsorbed DCFHP incubated overnight at 4, 40 or 50 °C, compared with a reference sample adsorbed on the day of the assay.

UniProt Q9BYF1, sequence (Q9BYF1 18-805): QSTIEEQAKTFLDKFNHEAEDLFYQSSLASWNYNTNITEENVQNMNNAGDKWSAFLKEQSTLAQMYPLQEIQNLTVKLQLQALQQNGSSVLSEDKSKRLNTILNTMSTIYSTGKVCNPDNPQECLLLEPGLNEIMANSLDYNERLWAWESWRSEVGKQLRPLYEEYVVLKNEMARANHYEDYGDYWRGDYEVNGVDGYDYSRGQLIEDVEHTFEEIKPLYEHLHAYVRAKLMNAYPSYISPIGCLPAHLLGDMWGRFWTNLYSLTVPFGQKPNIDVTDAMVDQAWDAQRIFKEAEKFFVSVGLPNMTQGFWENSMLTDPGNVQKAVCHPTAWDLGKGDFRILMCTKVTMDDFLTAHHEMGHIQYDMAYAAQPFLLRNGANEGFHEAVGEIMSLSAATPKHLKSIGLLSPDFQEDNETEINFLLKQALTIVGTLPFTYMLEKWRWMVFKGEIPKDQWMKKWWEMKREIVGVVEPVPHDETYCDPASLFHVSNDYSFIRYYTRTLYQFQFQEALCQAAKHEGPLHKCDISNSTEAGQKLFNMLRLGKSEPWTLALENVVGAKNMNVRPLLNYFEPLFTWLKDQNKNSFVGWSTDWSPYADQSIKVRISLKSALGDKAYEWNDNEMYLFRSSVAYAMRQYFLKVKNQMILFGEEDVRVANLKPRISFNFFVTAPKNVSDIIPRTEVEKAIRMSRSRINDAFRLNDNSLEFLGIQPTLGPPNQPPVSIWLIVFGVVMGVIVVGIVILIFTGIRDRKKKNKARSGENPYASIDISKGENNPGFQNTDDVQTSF

For the substance “Delta-C70-Ferritin-HexaPro SARS-CoV-2 spike ferritin nanoparticle produced in Expi293 cells”, in the experiment with ACE2 receptor [1], the native antigen concentration by ACE2 competitive ELISA, freshly adsorbed (time zero) was determined as 48 µg/mL and the native antigen concentration by ACE2 competitive ELISA, stored at 4°C for 3-21 days amounted to 75 µg/mL. In the experiment with ACE2 receptor [2], this substance registered a loss of ACE2 binding after overnight incubation at 40°C (AH-adsorbed) of 60% and a loss of ACE2 binding after overnight incubation at 50°C (AH-adsorbed) of 80%.
